In patent US20050208041A1 (Bristol-Myers Squibb, published 2005):
Residue numbers refer to the chain shown, from its start.

T1: purified recombinant IFNAR-1 extracellular fragment (human, UniProt P17181 28-436)
T1 construct: extracellular domain; also called soluble IFNAR-1; soluble IFNAR
T1 sequence (looked up): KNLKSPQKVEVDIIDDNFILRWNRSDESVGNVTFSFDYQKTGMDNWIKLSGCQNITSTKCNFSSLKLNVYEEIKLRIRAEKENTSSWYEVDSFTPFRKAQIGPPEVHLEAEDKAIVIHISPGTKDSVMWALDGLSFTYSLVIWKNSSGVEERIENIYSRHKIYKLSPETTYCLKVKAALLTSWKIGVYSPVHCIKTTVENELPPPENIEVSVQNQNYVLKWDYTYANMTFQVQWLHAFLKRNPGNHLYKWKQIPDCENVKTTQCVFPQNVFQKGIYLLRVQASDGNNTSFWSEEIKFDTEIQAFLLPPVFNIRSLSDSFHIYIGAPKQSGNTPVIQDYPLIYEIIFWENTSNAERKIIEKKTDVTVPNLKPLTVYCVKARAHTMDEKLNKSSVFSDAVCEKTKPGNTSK

B1: M3-11 (X = F) heavy chain with K1 light chain (antibody, V domains shown)
VH: EVQLLESGGGLVQPGGSLRLSCAFSGFTLSTSGMGIGWVRQAPGKGLEWVAHIWWDDDKYYNPSLKSRFTISRDTSKNTVYLQMNSLRAEDTAVYYCARNYYPYDAWFDFWGQGTLVTVS
VL: DIQMTQSPSSLSASVGDRVTITCSASSSINSNHLHWYQQKPGKAPKLLIYRTSILASGVPSRFSGSGSGTSFTLTISSLQPEDFATYYCQQGSNIPFTFGQGTKVEIK
notes: Position counted within VH CDR3; also called M3-11 F
B2: M3-11 (X = G) heavy chain with K1 light chain (antibody, V domains shown)
VH: B1 VH with F110G
VL: B1 VL
notes: Position counted within VH CDR3; also called M3-11 G
B3: M3-11 (X = H) heavy chain with K1 light chain (antibody, V domains shown)
VH: B1 VH with F110H
VL: B1 VL
notes: Position counted within VH CDR3; also called M3-11 H
B4: M3-11 (X = I) heavy chain with K1 light chain (antibody, V domains shown)
VH: B1 VH with F110I
VL: B1 VL
notes: Position counted within VH CDR3; also called M3-11 I
B5: M3-11 (X = K) heavy chain with K1 light chain (antibody, V domains shown)
VH: B1 VH with F110K
VL: B1 VL
notes: Position counted within VH CDR3; also called M3-11 K
B6: M3-11 (X = L) heavy chain with K1 light chain (antibody, V domains shown)
VH: B1 VH with F110L
VL: B1 VL
notes: the position is counted within CDR3, not on the entry; also called M3-11 L
B7: M3-11 (X = Q) heavy chain with K1 light chain (antibody, V domains shown)
VH: B1 VH with F110Q
VL: B1 VL
notes: Position counted within VH CDR3; also called M3-11 Q
B8: M3-11 (X = R) heavy chain with K1 light chain (antibody, V domains shown)
VH: B1 VH with F110R
VL: B1 VL
notes: Position counted within VH CDR3; also called M3-11 R
B9: M3-11 (X = S) heavy chain with K1 light chain (antibody, V domains shown)
VH: B1 VH with F110S
VL: B1 VL
notes: Position counted within VH CDR3; also called M3-11 S
B10: M3-11 (X = T) heavy chain with K1 light chain (antibody, V domains shown)
VH: B1 VH with F110T
VL: B1 VL
notes: Position counted within VH CDR3; also called M3-11 T
B11: M3-11 (X = V) heavy chain with K1 light chain (antibody, V domains shown)
VH: B1 VH with F110V
VL: B1 VL
notes: Position counted within VH CDR3; also called M3-11 V
B12: M3-11 (X = W) heavy chain with K1 light chain (antibody, V domains shown)
VH: B1 VH with F110W
VL: B1 VL
notes: Position counted within VH CDR3; also called M3-11 W
B13: DI M3 heavy chain with DI K1-C light chain (antibody, V domains shown)
VH: B1 VH with F24A, L29M, V39I, A42T, R73K, V80L, F110Y
VL: DIQMTQSPSSLSASVGDRVTITCSASTSINSNHLHWYLQKPGKAPKALIYRTSILASGIPSRFSGSGSGTDFTLTISSLQPEDTATYYCQQGSNIPFTFGQGTKVEIKR
notes: also called DI M3 DI K1-C
B14: DI M3-B heavy chain with DI K1 light chain (antibody, V domains shown)
VH: B1 VH with F24A, L29M, V39I, A42T, S67A, V80L, F110Y
VL: B13 VL with V19A, T27S
notes: also called DI M3-B DI K1
B15: DI M3-B heavy chain with DI K1-C light chain (antibody, V domains shown)
VH: B1 VH with F24A, L29M, V39I, A42T, S67A, V80L, F110Y
VL: B13 VL
notes: also called DI M3-B DI K1-C
B16: M3 heavy chain with DI K1-C light chain (antibody, V domains shown)
VH: B1 VH with F110Y
VL: B13 VL
notes: also called M3 DI K1-C
B17: M3-B heavy chain with DI K1 light chain (antibody, V domains shown)
VH: B1 VH with S67A, F110Y
VL: B13 VL with V19A, T27S
notes: also called M3-B DI K1
B18: M3-B heavy chain with DI K1-C light chain (antibody, V domains shown)
VH: B1 VH with S67A, F110Y
VL: B13 VL
notes: also called M3-B DI K1-C

Columns and labels:
[1] = molecular target: T1, purified recombinant IFNAR-1 …; test: Biacore, maximal association on IFNAR-1 relative to M3K1
Source text: Pools 4 and 11 were selected for further study and the individual antibodies in each pool were produced and expressed separately. The sequences of these individual antibodies were as shown in SEQ ID NO:12 of FIG. 1F and SEQ ID NO: 13 of FIG. 1G. The data is presented as maximal association relative to M3K1. […]

[2] = molecular target: T1, purified recombinant IFNAR-1 …; test: Biacore, antibody on immobilized soluble IFNAR-1, maximal response, mean of four
Procedure: Additional combination variants heavy chain DI M3-B and light chain DI K1-C were also made. These combination variants were also tested for binding to IFNAR-1. […] Binding analysis was done by Biacore, with the antibody bound to immobilized soluble IFNAR-1. Maximal response was determined at two concentrations and values shown are mean of four determinations.

| Binder | % activity relative to M3K1 [1] | % response relative to H3K1 [2] |
| --- | --- | --- |
| B1 | 93% | – |
| B2 | 63% | – |
| B3 | 104% | – |
| B4 | 81% | – |
| B5 | 82% | – |
| B6 | 75% | – |
| B7 | 73% | – |
| B8 | 220% | – |
| B9 | 39% | – |
| B10 | 82% | – |
| B11 | 108% | – |
| B12 | 70% | – |
| B13 | – | 4% |
| B14 | – | 11% |
| B15 | – | 9% |
| B16 | – | 17% |
| B17 | – | 17% |
| B18 | – | 14% |
